Test results reported in patent US20070218001A1 (BIOTECH STUDIO, published 2007).
Values joined by “and” are separate entries in the source; they are usually repeats but may differ in a detail not shown here. Equal entries are not always repeated. Where no end group is shown, it is not given here. The star is where a group is joined. Biotin = O=C1N[C@H]2[C@H](CS[C@H]2CCCCC(=O)*)N1

Key:
[1] = target: biotin-… peptide; experiment: phage ELISA, biotinylated peptide on streptavidin-coated wells, anti-M13 HRP and ABTS, 35 min at room temperature
[2] = target: T1, recombinant phage displaying CASK PDZ domain (PDZ domain of human hCASK, hCASK-PDZopt in pCANTAB5E) (human, UniProt O14936 480-577); experiment: phage ELISA
T1 construct: also called wildtype hCASK-PDZ
T1 sequence: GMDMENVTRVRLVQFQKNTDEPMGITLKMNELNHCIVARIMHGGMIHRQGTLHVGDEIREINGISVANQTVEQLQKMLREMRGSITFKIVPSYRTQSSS

Question: “phage-displayed third PDZ domain of human Dlg1 (in pCANTAB5E)” was tested. Which OD405 [1] did it give?
Answer: 0.51 OD405 and 0.46 OD405

B1: biotin-QKAPTKEFYA peptide (peptide)
peptide: Biotin-QKAPTKEFYA
notes: also called cognate peptide ligand of hCASK PDZ; C-terminus of syndecan-2
Question: Does B1 bind [2]?
Answer: binds
